Test results from the supplement of paper PMC10567573.
± gives the standard deviation.

Assay: protein stability index of a GFP-peptide fusion (GPS, HEK-293T) (PSI 1-6); higher = more stable
Details: c terminus: a fixed tail appended
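Note: 24-mer peptide tiles fused after GFP, lentivirally expressed, FACS-sorted into six equal bins by GFP/DsRed ratio, decoded by Illumina sequencing, PSI is the read-weighted mean bin number.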

Row | Sequence | protein stability index (treatment: DMSO) | protein stability index (treatment: MLN4924 1 uM, 8 h)
1 | MSPGDCPPETTETPKCSSPRGQEG [YJU2B] | 5.44 ± 0.43 | 5.5 ± 0.11
2 | IRVPSVPPVPCVPSVPCTPAPQVG [KRT36] | 3.45 ± 0.27 | 3.57 ± 0.25
3 | CPRPCRESAFKLSTGTSRWPSAKS [SCNN1D] | 2.7 ± 0.62 | 2.65 ± 0.45
4 | SEELLSLKYENDYPSVILRDPLQT [ETS1] | 4.05 ± 0.14 | 4.14 ± 0.13
5 | LRVMTTNIRSARGNNPNGREAKMI [ELOA2] | 3.25 ± 0.18 | 3.49 ± 0.26
6 | NREACRDLSGRRLRDVNHEKAMAE [SDE2] | 5.01 ± 0.12 | 4.87 ± 0.32
7 | LLAVPNIILTNQSVREVTQIKCIE [P2RY14] | 2.53 ± 0.29 | 2.35 ± 0.21
8 | ARQLQLSDPQTVAGAFGYFQQDTK [LPCAT4] | 3.82 ± 0.41 | 3.9 ± 0.16
9 | INEDLKTCSRVDYCLLSDHGCEYS [MATN2] | 3.41 ± 0.21 | 3.35 ± 0.33
10 | SWSDGMAFCALVHSFFPDAFDYNS [SMTNL2] | 2.95 ± 0.65 | 2.9 ± 0.67
11 | QEPMVPAKLGTQAEKDRRLKKKHQ [PPFIA4] | 5.32 ± 0.42 | 5.56 ± 0.11
12 | QVERMREVNSRCYQPEPFACGIEH [FBXO34] | 2.53 ± 0.3 | 2.43 ± 0.34
13 | LQLKETLATQEPTDNQVRLRKRKE [DLC1] | 5.18 ± 0.3 | 5.32 ± 0.24
14 | VFLPIVVLIFKSILFLPCLRKKIL [STEAP1] | 2.98 ± 0.78 | 2.98 ± 0.59
15 | ASRVSKVNDKRRKKSGEKEQHISK [KMT2E] | 4.69 ± 0.39 | 4.45 ± 0.38
16 | LQISEELLSRNQLSTAASLGPSGL [LCOR] | 3.5 ± 0.14 | 3.35 ± 0.41
17 | SRGYAYRDNGHSNRDEHSSRGYRN [RBMY1A1] | 4.31 ± 0.16 | 4.21 ± 0.12
18 | SSITRQKKRLQELALALKKCKPSL [TMEM120A] | 2.39 ± 0.41 | 2.81 ± 0.39
19 | RALESELQQLRARLQGLEADCVRG [PBXIP1] | 3.47 ± 0.19 | 3.31 ± 0.13
20 | VFFVCFVPYHIARIPYTKSQTEAH [P2RY14] | 3.57 ± 0.74 | 3.17 ± 0.35
21 | VPRTLSPHQYHSVHGVGMVPEWSD [TBX5] | 3.62 ± 0.25 | 3.77 ± 0.16
22 | WGGQEDREPAGRWKEGRPRVEESG [PBXIP1] | 4.79 ± 0.21 | 5.05 ± 0.099
23 | NRYGDVPCLDQTRVKLTKRSGHTQ [PTPN9] | 3.96 ± 0.4 | 4.36 ± 0.26

Row | Sequence | protein stability index (treatment: DMSO) | protein stability index (treatment: MLN4924 1 uM, 8 h)
24 | KRNKRNPIFQDSQDTEVFSWSDNE [FAM104B] | 4.46 ± 0.21 | 4.58 ± 0.22
25 | ILKHTPKEHPDVQLLEDAILIIQG [NET1] | 2.12 ± 0.27 | 1.99 ± 0.35
26 | YPEEADGTLDCISMALTCTFNRWG [RBBP5] | 2.19 ± 0.23 | 2.11 ± 0.28
27 | WGLEEEDFQPREEAMLYHNQTAEL [P3H4] | 4.61 ± 0.084 | 4.5 ± 0.48
28 | VCNINKGCGYGCQLHHVVYCFMIA [FUT8] | 2.89 ± 0.42 | 3.2 ± 0.68
29 | GKKDKHSQSPRAAGPREGHSHSHH [PBXIP1] | 5.32 ± 0.31 | 5.26 ± 0.1
30 | DYEAGQHMEDPRRAGKMLMTLPLL [ESRRG] | 3.56 ± 0.29 | 3.52 ± 0.15
31 | ADFKGVLQRPSYKFFFKSMDDDFG [DVL3] | 2.5 ± 0.28 | 2.67 ± 0.11
32 | CQEQIEALLESSLRQAQQNMDPKA [CCND1] | 4.85 ± 0.079 | 4.63 ± 0.19
33 | MKVKVIPVLEDNYMYLVIEELTRE [HAGHL] | 2.94 ± 0.55 | 2.95 ± 0.56
34 | TACLTDRGIIMTFGSGSNGCLGHG [NEK8] | 2.23 ± 0.2 | 2.28 ± 0.32
35 | ERVEAFSDGVYAIVATLLILDICE [TMEM175] | 3.05 ± 0.15 | 3.15 ± 0.22
36 | HFSRLCGPESPPPPYSRLSPRDEY [SMAD6] | 3.42 ± 0.07 | 3.56 ± 0.17
37 | GLGGGSSRTSCRLSGGLGAGSCRL [KRT17] | 2.41 ± 0.13 | 2.35 ± 0.41
38 | RADKNDDGKLSFEEFKAYFADGVL [NECAB1] | 3.48 ± 0.3 | 3.58 ± 0.39
39 | PSETGNTFVSGGCDKKAMVWDMRS [GNB5] | 3.93 ± 0.16 | 3.75 ± 0.26
40 | QCRHTLEQHNWNIEAAVQDRLNEQ [FAF2] | 3.89 ± 0.17 | 3.87 ± 0.18
41 | VRYNAEKKKVGNYYTTPIYRFRMK [YJU2B] | 2.57 ± 0.17 | 2.86 ± 0.35
42 | NYECNLYTFLYLVCISTKTQCSEE [FEM1B] | 3.11 ± 0.38 | 2.81 ± 0.4
43 | FLDLMETIDKQREEMAKSSRASAA [LRRC45] | 3.71 ± 0.11 | 4.08 ± 0.3
44 | EIFGPVTCVVPFDSEEEVIERANN [ALDH8A1] | 5.18 ± 0.17 | 5.17 ± 0.22
45 | IEDEDQILENSSQKENVFKCDSLK [FAN1] | 5.07 ± 0.1 | 5.01 ± 0.35
46 | HGLQEGKDLFTQRQNSAPARMLSS [CDC25A] | 4.4 ± 0.18 | 4.46 ± 0.15

Row | Sequence | protein stability index (treatment: DMSO) | protein stability index (treatment: MLN4924 1 uM, 8 h)
47 | DRDSIWKCLKFLGSRHPTLVLPLV [INTS4] | 2.15 ± 0.24 | 2.15 ± 0.22
48 | KKGLFLKHVEYEVSSQRFKSSVYR [SNX8] | 2.38 ± 0.14 | 2.91 ± 0.28
49 | AGGGSQENLDNDTETDSLVSAQRE [DVL3] | 5.32 ± 0.21 | 5.65 ± 0.36
50 | APTSTCRTSVGVAVLGGFLYAVGG [KLHL20] | 3.02 ± 0.94 | 2.71 ± 1.2
51 | MAAMETETAPLTLESLPTDPLLLI [FBXO3] | 3.44 ± 0.25 | 3.43 ± 0.18
52 | TLRDHFKGISSHSRSSLMPLRNDV [SLC2A12] | 2.96 ± 0.15 | 3.03 ± 0.37
53 | AVIRWMHSFNFVLSANLHGGAVVA [CPN1] | 2.95 ± 0.71 | 2.88 ± 0.19
54 | NMCMGRTSRGKLGGQDSFESIESY [ETS1] | 3.612 ± 0.034 | 3.72 ± 0.49
55 | KGTPASKLILGMPTYGRSFTLASS [CHIT1] | 2.47 ± 0.28 | 2.54 ± 0.21
56 | NLLQYVRMPLLTPRYITDVIDAEP [KLHL12] | 2.29 ± 0.45 | 2.33 ± 0.26
57 | PPTTPQNEEIRAVGRLKRERSMSE [MFF] | 4.82 ± 0.28 | 5.05 ± 0.14
58 | MTKAQESLTLEDVAVDFTWEEWQF [ZNF649] | 3.36 ± 0.12 | 3.74 ± 0.44
59 | VTEFILLGLTQNPEGQKVLFVTFL [OR4A15] | 2.96 ± 0.44 | 3.27 ± 0.29
60 | LILELVSGGELFDFLAEKESLTED [DAPK3] | 1.94 ± 0.18 | 2.49 ± 0.43
61 | IEPRERAKFKRKYKVKLVEKRAFR [NOP53] | 2.87 ± 0.14 | 3.15 ± 0.32
62 | NIIDIYKQESTRPEKKSDQPMCEE [TRIM55] | 5.05 ± 0.26 | 5.02 ± 0.052
63 | LSILRHQNLLKELQDLALQGAKER [CHGA] | 3.02 ± 0.087 | 3.08 ± 0.27
64 | VARSGTPAVENKQQIGDAIRMIVR [PLK2] | 3 ± 0.22 | 3.09 ± 0.23
65 | MEGTPTIKSKKKLLQIIDTTLLKC [VPS39] | 2.25 ± 0.24 | 2.36 ± 0.25
66 | RSANGFPYREDEEGAFGEHGSQGT [MAP2] | 5.38 ± 0.25 | 5.41 ± 0.2
67 | YLRPQSNYSSSQDALISVSYTIIT [OR10K2] | 2.73 ± 0.7 | 2.68 ± 0.99
68 | RKFSRECEDQKQIKKPESFSKQIV [NEUROD6] | 4.43 ± 0.27 | 4.21 ± 0.43
69 | EDGIHTLTCALMLLNTDLHGHNIG [PSD2] | 2.78 ± 0.5 | 2.75 ± 0.36

Row | Sequence | protein stability index (treatment: DMSO) | protein stability index (treatment: MLN4924 1 uM, 8 h)
70 | EARSLEHTLPVNRETLKRKVSGNR [ESR2] | 4.95 ± 0.27 | 5.16 ± 0.2
71 | VSCPEGRADCASESACSSDSLDEA [PWWP2B] | 5.4 ± 0.38 | 5.41 ± 0.42
72 | LACRLTPDMETKLLFMTSRVRFGQ [INTS3] | 2.2 ± 0.16 | 2.23 ± 0.22
73 | IYVHILKDTRMAEEYCHKHYDRNK [VPS39] | 2.19 ± 0.39 | 2 ± 0.28
74 | LSLLGKLTISAAFNIVYIYTSELY [SLC22A15] | 3.31 ± 0.21 | 3.25 ± 0.28
75 | KLVVHDCPVWDIFDSDWYTSRNLI [RHOBTB3] | 2.62 ± 0.43 | 2.66 ± 0.18
76 | GGSTSAHYAVNSQFTMGGPAISMA [CARM1] | 2.94 ± 0.55 | 2.94 ± 0.25
77 | QQKQQIMAALNSQTAVQFQQYAAQ [ACBD3] | 3.21 ± 0.17 | 3.27 ± 0.16
78 | FEEVLSSTAHASAQSLAGGSRRTK [TPD52L1] | 5.16 ± 0.16 | 5.11 ± 0.24
79 | LEEVAVQQTGDDDEVDDFEDFIFS [PBXIP1] | 5.43 ± 0.36 | 5.41 ± 0.27
80 | DDEGWLHSGDLGQLDGLGFLYVTG [ACSBG2] | 2.66 ± 0.33 | 2.54 ± 0.42
81 | IAGDEGTQIPADEDTQTDADSSAQ [TAF7L] | 5.58 ± 0.27 | 5.45 ± 0.31
82 | PTGRLPALVRWWNGIGAVLDFTHP [MYORG] | 2.15 ± 0.28 | 2.14 ± 0.033
83 | LKKGSKEKQADFLDKQMSRDEHRA [NFE2L1] | 5 ± 0.39 | 5.08 ± 0.32
84 | PLGSPSPRPRRAKRFASLSRFVET [ADAMTS4] | 3.5 ± 0.28 | 3.41 ± 0.21
85 | YESEILPSTPNPQPPSCQGEAAGS [DUSP5] | 5.24 ± 0.13 | 5.296 ± 0.002
86 | RALARNLIFGLITCLTGVLGVGLG [SPNS1] | 2.28 ± 0.32 | 2.92 ± 0.81
87 | PPARGTLKTSNLPEELRKVFITYS [TRAF3IP2] | 2.53 ± 0.37 | 2.53 ± 0.12
88 | VSMETYHVTLTLPPTQLEVNLEEI [C2CD2L] | 2.34 ± 0.35 | 2.27 ± 0.31
89 | KSQDLAKIMADIRAQYDELARKNR [KRT18] | 3.05 ± 0.41 | 3.29 ± 0.65
